We go through one protein from publication PMC4344358, “Radiation damage to nucleoprotein complexes in macromolecular crystallography” (Journal of Synchrotron Radiation, 2015).

The data set deals with the molecule itself. Briefly: crystal structure; C.Esp1396I (0.7 mg/ml) mixed with 35 bp dsDNA at 4:1 molar ratio; sitting-drop vapour diffusion at 293 K, 50 mM MES pH 7.5, 25% MPD, 40 mM MgCl2; data at 100 K, space group P6(5), 2.8 A; eight datasets of increasing dose from one crystal.

B1: C.Esp1396I (natural protein)
chain: MESFLLSKVSFVIKKIRLEKGMTQEDLAYKSNLDRTYISGIERNSRNLTIKSLELIMKGLEVSDVVFFEMLIKEILKHD
notes: C.Esp1396I, bacterial helix-turn-helix controller protein of a restriction-modification system; native protein; protein chains A-D of the deposited entries; also called C-protein; controller C-protein; source: expression and purification as described earlier (McGeehan et al., 2008); pure protein
B1: the “stoichiometry N” value was determined as 4.

As a reminder, the stoichiometry N is the number of molecules, sites or subunits per partner or assembly.
